Sequences and labels used below:
B1: Hairpin Ribozyme (parent)
chain: GUCCUCUUUCACGUGCGCGUGAAAGAGAGAAGUGAACCAGAGAAACACACGUUGUGGUAUAUUACCUGGUA

In the series the parent is B1. Description: self-cleavage, relative activity (ratio to wild type); higher = more cleavage; co-transcriptional.
As for GACCUCUUUCACGUGCGCGUGAAAGAGAGAAGUGAACCAGAGAAACACACGUUGUGGUAUAUUUCCUGGUA [U2A A64U], the self-cleavage was 0.0942. On to UUCCUCUUUCACGUGCGCGUGAAAGAGAGAAGUGAACCAGAGAAACACACGUUGGGGUAUAUUACCUGGUA [G1U U55G], for which the self-cleavage amounted to 0.104. As for UUCCUCUUUCACGUGCGCGUGAAAGAGAGAAGUGAACCAGAGAAACACACGUUGAGGUAUAUUACCUGGUA [G1U U55A], the self-cleavage worked out at 0.224. To GACCUCUUUCACGUGCGCGUGAAAUAGAGAAGUGAACCAGAGAAACACACGUUGUGGUAUAUUACCUGGUA [U2A G25U] belongs 0.204. For GACCUCUUUCACGUGCGCGUGAAAGAGAGAAGUGAACCAGAGAAACACACGUUGUGGUAUAUUACAUGGUA [U2A C66A], the self-cleavage is 0.124. In the case of GACCUCUUUCAUGUGCGCGUGAAAGAGAGAAGUGAACCAGAGAAACACACGUUGUGGUAUAUUACCUGGUA [U2A C12U], the self-cleavage was 0.166. For the variant GACCUCUUUCAAGUGCGCGUGAAAGAGAGAAGUGAACCAGAGAAACACACGUUGUGGUAUAUUACCUGGUA [U2A C12A], the self-cleavage worked out at 0.171. GACCUCUUUCAGGUGCGCGUGAAAGAGAGAAGUGAACCAGAGAAACACACGUUGUGGUAUAUUACCUGGUA [U2A C12G]: the self-cleavage came to 0.175. As to GACCGCUUUCACGUGCGCGUGAAAGAGAGAAGUGAACCAGAGAAACACACGUUGUGGUAUAUUACCUGGUA [U2A U5G], the self-cleavage is 0.166. For the variant GACCUCUUUCACGUGCGCGUGAAAGAGAGAAGUGAACCAGAGAAAUACACGUUGUGGUAUAUUACCUGGUA [U2A C46U], the self-cleavage worked out at 0.0639. To GACCUCUUUCACGUGCGCGUGAAAGAGAGAAGUGAACCAGAGAAACACACGUUGUGCUAUAUUACCUGGUA [U2A G57C] belongs 0.0768; to UUCCUCUUUCACGUGCGCGUGAAAGAGAGAAGUGAACCAGAGAAACACACGCUGUGGUAUAUUACCUGGUA [G1U U52C], 0.261; to GACCUCUUUCACGUGCGCGUGAAAGAGAGAAGUGAACCACAGAAACACACGUUGUGGUAUAUUACCUGGUA [U2A G40C], 0.12.

GACCUCUUUCACGUGCGCGUGAAAGAGAGAAGUGAACCAAAGAAACACACGUUGUGGUAUAUUACCUGGUA [U2A G40A]: the self-cleavage worked out at 0.0928. The same measure for GACCUCUUUCACGUGCGCGUGAAGGAGAGAAGUGAACCAGAGAAACACACGUUGUGGUAUAUUACCUGGUA [U2A A24G]: 0.286; for GACCUCUUUCACGUGCGCGUGAAUGAGAGAAGUGAACCAGAGAAACACACGUUGUGGUAUAUUACCUGGUA [U2A A24U]: 0.29. The same measure for GACCUCUUUCGCGUGCGCGUGAAAGAGAGAAGUGAACCAGAGAAACACACGUUGUGGUAUAUUACCUGGUA [U2A A11G]: 0.344; for GACCUCAUUCACGUGCGCGUGAAAGAGAGAAGUGAACCAGAGAAACACACGUUGUGGUAUAUUACCUGGUA [U2A U7A]: 0.331. In the case of GACCUCUUUCACAUGCGCGUGAAAGAGAGAAGUGAACCAGAGAAACACACGUUGUGGUAUAUUACCUGGUA [U2A G13A], the self-cleavage stood at 0.26. The same measure for GACCUCUUUCACCUGCGCGUGAAAGAGAGAAGUGAACCAGAGAAACACACGUUGUGGUAUAUUACCUGGUA [U2A G13C]: 0.158. On to UUCCUCUGUCACGUGCGCGUGAAAGAGAGAAGUGAACCAGAGAAACACACGUUGUGGUAUAUUACCUGGUA [G1U U8G], for which the self-cleavage was 0.0482.

For the variant UUCCUCUAUCACGUGCGCGUGAAAGAGAGAAGUGAACCAGAGAAACACACGUUGUGGUAUAUUACCUGGUA [G1U U8A], the self-cleavage was found to be 0.144. Take UUCCUCUUUCACGUGCGCGUGAAAGAGAGAAGUGAACCAGAGAAACACACGUUGUGGAAUAUUACCUGGUA [G1U U58A]: the self-cleavage was found to be 0.0365.

With UUCCUCUUUCACGUGCGCGUGAAAGAGAGAAGUGAACCAGAGAAACACACGUUGUGGUAUAUUACCAGGUA [G1U U67A], the self-cleavage came out at 0.105. To UUCCUCUUUCACGUGCGCGUGAAAGAGAGAAGUGAACCAGAGAAACACACGUUGUGGUAUAUUACCUGGCA [G1U U70C] belongs 0.142.

Turning to UUCCUCAUUCACGUGCGCGUGAAAGAGAGAAGUGAACCAGAGAAACACACGUUGUGGUAUAUUACCUGGUA [G1U U7A], the self-cleavage was 0.131. Regarding UUCCUCGUUCACGUGCGCGUGAAAGAGAGAAGUGAACCAGAGAAACACACGUUGUGGUAUAUUACCUGGUA [G1U U7G], the self-cleavage was determined as 0.088. GACCUCUUUCACGUGCGCGUGAAAGAGAGAAGUUAACCAGAGAAACACACGUUGUGGUAUAUUACCUGGUA [U2A G34U]: the self-cleavage came to 0.665.

Consider UUCCUCUUCCACGUGCGCGUGAAAGAGAGAAGUGAACCAGAGAAACACACGUUGUGGUAUAUUACCUGGUA [G1U U9C], for which the self-cleavage is 0.0677. To UUCCUCUUGCACGUGCGCGUGAAAGAGAGAAGUGAACCAGAGAAACACACGUUGUGGUAUAUUACCUGGUA [G1U U9G] belongs 0.224; to GAUCUCUUUCACGUGCGCGUGAAAGAGAGAAGUGAACCAGAGAAACACACGUUGUGGUAUAUUACCUGGUA [U2A C3U], 0.288; to GACCUCUUUCACGUGCGCGUGAAAGAGAGUAGUGAACCAGAGAAACACACGUUGUGGUAUAUUACCUGGUA [U2A A30U], 0.0131. In the case of GACCUCUUUCACGUGCGCGUGAAAGAGAGAAGUGAACGAGAGAAACACACGUUGUGGUAUAUUACCUGGUA [U2A C38G], the self-cleavage was found to be 0.121. As for GACCUCUUUCACGUGCGCGUGAAAGAGAGAAGUGAACAAGAGAAACACACGUUGUGGUAUAUUACCUGGUA [U2A C38A], the self-cleavage was 0.115.

As to GACCUCUUUCACGUGCGCGUGAAAGAGAGAAGUGAACCAGAGAAACACCCGUUGUGGUAUAUUACCUGGUA [U2A A49C], the self-cleavage came out at 0.149. In the case of UUCCUCUUUCACGUGCGCGUGAAAGAGAGAAGGGAACCAGAGAAACACACGUUGUGGUAUAUUACCUGGUA [G1U U33G], the self-cleavage turned out to be 0.0782. For the variant UUCCUCUUUCACGUGCGCGUGAAAGAGAGAAGAGAACCAGAGAAACACACGUUGUGGUAUAUUACCUGGUA [G1U U33A], the self-cleavage was 0.123. For GACCUCUUUCACGUGCGCGUGAAAGAGAGAAGUGAAGCAGAGAAACACACGUUGUGGUAUAUUACCUGGUA [U2A C37G], the self-cleavage amounted to 0.123.

Source of the values: the RNAGym collection of RNA variant scans (doi:10.7554/elife.80360).
